The values that follow come from a protein production outcome set (Wang et al. 2014).

A short description of the data set: label from the status in PepcDB records.
As to “MPVVDIDPDELRRLTGHRSKDDDELRQDLFGLGIEYEGETEDGDFKLEFEADRLDRLSVEGIARSLRYHAGDDRGVDIPDTNAPEWAIDVTDVPADRPYVTGAVIRGVDLDADALDSLIQLQEKLHATMGRKRAKGAIGIHDLAMLKGDTVDGDGTAARSLTYTGIDPDGDTFVPLDDDAERTPADVLTEHPTGETYADLLADHDTYPAIYDDIGLFSFPPVINGRRTEVTTDSRELFVELTGTDQWTIDRMCAIICYALDARGATIEDVTVDYPDRELHRPDFAVRTKHVSHDRIETLLGVEFTTEAVVDLAERAGLDATPTDDGYDVEIPPYRVDVRHPVDVVDDLGRAYDFNDLTPRYPDVNTIGGRTESSRLERSVRQALVGLGFEDLLNFNMTSEAENFDRMRLTPDHDAVGAAQPATIAEPYSQDFTILRTWALPSLAMVLETNTHHAYPQDLAEVGFAAHADGDTQTGVAERRTVAAVLARNDASYEDAKARLQALCDEFAVALETPPTTHPSFIDGRAATIEIDGQPAGVIGELHPGVIVEHDVEVPVAGFEFELDALR”, the protein production result is given as “failed”. With “MPWQQQPIRYSADLEKPSPREQADIEKIMAKLLKNNERAYDKYKHGLRDAHAKSHAILRGELIVNEGLPPELAQGLFAEPRTYPVIARLSSTSGVRRSDKTRGVRGLGLKVLGVQGEKILPDDSSTNQDFVMVTHEDFLFADAHAYAGLGMITASLLARLSDQALWLGSGLLDLVSKAGIKLPDNLMVFVAPNRPILGLEFFSSAPFRHGDHVAKYRFAPASENVKALSGQLLPRNPAPEQHRDMIAEFFADQTAEFDFSAQLCTDPVAMPIEDAGKNWDKSISPYVSVAKIVFGPQNPYSALRRAYGDDVLAFNSWRGLAEHRPLGSINRLKKTVYESSADYRHRVNRIDRHEPLEHHHHHH”, the protein production result is “failed”. With “MPYDTSNNTLIVSTRNHQDDDETAIVDDLQRLVNYQISDGGNINHQYFQIAQQFHHTQQQNANANALQLVAAATTATTLMPQTQAALAMNMIPAGTIPNNALWDMWNPIVPDGNRDHYTNIPFK” the entry was “failed”; with “MPYFYVFLLLLTSLLWGGNFVVGKSLVDHASPMTLTNLRWMIAIVCLLPMVWFKEKKILPPRTAILPLILMGISGVALFNIFQFLALEKTSATNVGLISTLNAISIALFSVLFLKEKVNTLQILSMILSFFGVILVLLKGDFSLLFSLHFNSGDLWMIAAVCIWGIYSVCSKWATKTTTPLMATLYSGIFGVILLLPFNIGSFTVSNINTSFITSLLYTGLISTVLCMVFWNIGVQKLGATTSGIFLNFNPIFTAILAFIFLGEELTWIQILGTIVVVTGCYLFSHFKTVAVQPVRPLMRKHS”, “failed”; with “MPYKNILTLISVNNDNFENYFRKIFLDVRSSGSKKTTINVFTEIQYQELVTLIREALLENIDIGYELFLWKKNEVDIFLKNLEKSEVDGLLVYCDDENKVFMSKIVDNLPTAIKRNLIKDFCRKLS”, “not failed”. With “MPYLLLTLAALFWGGNYVVGHVLVQGVDPILMTEARWALTALLLGLLYRRQIAGSRRLLRANAPAVVVLTLCGQVSFPLTLYIGLQTTSALNAAIYMSATPSMVLLINRLFFRDPVSGRNWLGVAFSTLGVMILLFQGNPLHAASLHTFAIGDLWAMGSALSWALYCSLLRLKDRRIPANGFVAVSSLLGALILVPIVIFWLMRHPAQDWAAWREPFFLSGLAYLVIFPSWLAYLFWNKGIATIGATRGEIYTHIIPLSGGVLSILFLHTQPHAWHLFSALFIMVGIGICSLEKRQAASIRLRD” the entry was “failed”; with “MQALTTYKCIEKGIVVWLTGLPGSGKTTIATRLADLLQKEGYRVEVLDGDWARTTVSEGAGFTREERLRHLKRIAWIARLLARNGVIVICSFVSPYKQARNMVRRIVEEEGIPFLEIYVKASLEEVIRRDPKGLYKKALKGELENFTGITDPYEPPENPQLVLDTESNTIEHNVSYLYSLVKAVIE”, “not failed”.

On to “MQAVALENDVIRRFASGQMFPMAKLVLETAFQPIVEATTGTIFGYESLMRGHDRLGFSSPLALLDQAAADGELKAFEQMLASRALAKFSTLPDFSSATLFLNLDVRLIPHGDVILDKLVGHLARAGIPASSICFELSERFDNTSVPEFTSLIARMRKEGFKLAIDDFGAGHGEMKLLCDFPLDYLKIDRHFISGIDHLPRKQHLVRNIVNIAHVLGVRVIAEGIETEAEFLSCREFGVDLVQGWLIAKPTVFTSELPESFPHLNRVGVARRNSQTLDEILIRREIERLPTVFEHDSVDSVFELFRRNPQQAFFPVLNANGEPRGVINEYHLKEYIYRPFGRDLLKNKIYERTISHFVDPAPIVGLDADADQLMNMFASMGGMGGSACIILTENMRYAGIVSAASLIKVINEKQLKMAQDQNPLTALPGNRAIGGFIADSCSDGDETRFFCYCDFDNFKPFNDKYGFNAGDHAITLFSALMRRYFFAGDCFLGHIGGDDFFIGVRDWSVEELMEILERLLSDFHDDVAGLYSDEDRAAGCMKGQDRNGNERDFALLRCSIGVLTLPKGSIIANPERIGSEIASVKAAAKENEGGLVVRVFGEANLEHHHHHH”, for which the protein production result was “failed”.

With “MQDAFEVALPLFLIMDPVGNAAASLAILREHTPSRQRAIIRRELVFALAIVLLFHFLGDALLGLLDIEQSTLRLSGGIILFIIAMKMVFPPAQENDPEAVTRDPFIVPIAVPLIAGPSLLAAVMVYARQAQAGMMGQASVLGGVLMAWGATALIMAFTPDLARILGPRAMRAMERLMGLILILMAVQMLENGIRIFVQSL”, the protein production result is “failed”. As for “MQDFKKLPTVLTAEELIDKIFRRAARVEGRNPKEKALNKLATISNVSRDYFGKIIGAHPSYENLPDFYREMVDVVVGIRQLKKSLVALKWADGMIQKVVSRAVREVKGGKNPSAVVKSAYGRVASIIEQIDDELRFLNDAKNRMREIPILQDLPTIVVAGYPNVGKSSLVARISTVKPEVASYPFTTKKINLGFAEFAGKRVQIIDTPGLLDRPLSKRNRIERRAVLALKHLADIILFVIDPTETCGYSLEKQLSLLEEIKGYFAKPTVEVYSKADMHDRRDRQAYSAVTGEGIDELIKEIEKMVKIHSQTSTVIAPSGQTSTQEQHSLEHHHHHH”, the entry is “failed”. As for “MQDIHFRRHYVRHLPKEVSQNDIIKALASPLINDGMVVSDFADHVITREQNFPTGLPVEPVGVAIPHTDHKYVRQNAISVGILAEPVNFEDMGGEPDPVPVRVVFMLALGESNKQLNVLGWIMDVIQDEDFMQQLLVMNDDEIYQSIYTRISERGEV”, the entry is “not failed”; as for “MQDNNGPCRNFYQLVFEEGKFMPRAFLSHSSADKKSYVEMVAKKLGYNTCVYDEFSFEEGMKSAEEIMKGLSRSDLFVLFLSDSALESNWVKNELNTAQELLNTGDMKRILPIIIDKNITYKDNRIPQWLRDEYNLKYVSRPTVAARRITQKLREISWEQHPRLKEKDQIFVGRNNLTKTFEERIDAFDLQTPTCIFASGIRKIGRRTLLKNCLTKSNVVDDSYQPPIITLNSHEGLEDFIIRIYDLGFSGEFNLSDFMTTEIDHKIGIATELIRDIQVAKEILFILDNGCIITPDREINQWFLQILSHLPNQDRVTFGIASSFRLDKKYIRTRNNIFYIEVPELDKVEREGLLKRYSKFEKLELQPDELKFFGDLLNGYPEQVYYAVDLIKDLGIFQAKKDSYLIQEFNTERVNILMNKYDNNQKSKDFLYFLSEFEFVDYDFIFEIVGDEEFYINLLNELLASAICEHLGANKEYIRINDIIRDFVKRNNLSLPKEYKDKLEDHLNNFLSNYQKEEKSAADLLYSMKEALIQGKSIDEKYLIPSQFLKTMTELYDRHKRYGEIVKLADRVLQNEEYMDHRITEEIRYYLCLALARQKDSRFLQEVQKIDGANHDFLFGFFFRITGNYRKAIERLETAIEKRPHFSFAERELVNVYLLIEDFERALTLAKQNYERDKNNPYHIQAYFRCLIAEDKINGNEEKMEELLDNLNKLKTEKAKQMYMRAKAQYLAFHKDDEIGALELADLATKTYSHDIYCWFTKFDICEKYDKIDEMGNILKVLDKMIDKNSSFYSILINLKALYLAKSDQKPEALKLVFSLNNYPENALDKIIKRIESTKIPRMNKRSIKI”, “failed”. With “MQDSFFSFLSSPINLLFLFVAFFLLFVTPWLWNIVNSAHNIHKLLDPLGIKKKENSLPVTGLLFLPLLLIIIFIEWFWPLANITLFPILASPYIKFNIIAVISVVILLILIQCDKKKSMELWVLAYAAVLYLLYLIIIMATVVVGMNAFPASHYIFAPESSMTINRTIIYGLLIAHLIFIWLTISLKFTWRLLLMILYTLALSFAYFSLIVS” the entry was “failed”; with “MQEQVSNVRARIYKPAKSTMQSGHSKLKAWKLEFEPSCTQYTEPLMNWTGSHDTKQQVCLSFTTRELAIAYAVAHKIDYTVLQDNPRTIVPKSYADNFTKPRDM”, “not failed”.
